Data: patent US20110076262A1 (Genentech, published 2011)
Like-named read-outs stand apart in the source and are kept apart here.

Key:
[1] = biological target: T1, Human FGF19 (human, UniProt O95750 25-216); experiment: SPR (BIAcore 2000), IgG on chip, soluble human FGF19
T1 construct: Recombinant soluble protein; also called huFGF19; Fibroblast growth factor 19

[2] = biological target: T1, Human FGF19; experiment: SPR (Biacore), 1A6-graft as IgG, soluble human FGF19; reference chimeric 1A6
[3] = biological target: T1, Human FGF19; experiment: SPR (BIAcore 2000), IgG on chip, soluble human FGF19; remark: listed apart in the source
[4] = biological target: T1, Human FGF19; experiment: as above; remark: listed apart in the source
[5] = biological target: T2, Cynomolgus FGF19 (cynomolgus monkey); experiment: SPR (BIAcore 2000), IgG on chip, soluble cynomolgus FGF19
T2 construct: also called Cyno FGF19; cynoFGF19

[6] = biological target: T1, Human FGF19; experiment: solid phase receptor binding assay: antibody blocks FGF19 binding to plate-captured FGFR4-Fc
Procedure: (§1) Maxisorb 96 well plates were coated overnight at 4° C. with 50 μl of 2 μg/ml anti-human immunoglobulin Fcγ fragment specific (Jackson Immunoresearch) and used to capture 1 μg/ml FGFR-Fc chimeric proteins (R & D Systems). The non-specific binding sites were saturated with PBS/3% BSA for 1 hour and FGF19 (0.25 μg/ml) was incubated for 2 h in PBS/0.3% BSA in the presence of oligosaccharides (0.5 μg/ml; Neoparin Inc.) and the indicated anti-FGF19 antibody (0-10 μg/ml). FGF19 binding was detected using a biotinylated FGF19 specific polyclonal antibody (0.5 μg/ml; BAF969; R & D Systems) followed by streptavidin-HRP and TMB colorimetric substrate.
(§2) Humanized anti-FGF19 antibody 1A6.v1 was characterized as follows: [0531] (1) In an assay to test ability of 1A6.v1 to block binding of FGF19 to its receptor, FGFR4, 1A6.v1 was able to block FGF19 binding to its receptor at least as well as one comparator antibody—namely a chimeric antibody (which comprised the variable regions from the murine parent 1A6 antibody (variable domains depicted in FIG. 8) fused to a human Fc region). […] [0532] (2) 1A6.v1 was also tested for cross-species binding among human and primate (Cynomolgus macaque monkey). […] [0533] (3) 1A6.v1 was tested for in vitro efficacy using a colon tumor cell line (HCT116 cells). […] [0534] […]

[7] = biological target: T1, Human FGF19; experiment: Solid phase receptor binding assay: FGFR4-Fc captured on an anti-human Fc plate, FGF19 (0.25 µg/ml) incubated with titrated anti-FGF19 antibody, bound FGF19 detected with biotinylated polyclonal anti-FGF19 / streptavidin-HRP (OD 450 nm); blocked ligand-receptor pair FGF19/FGFR4
Procedure: as §1, §2

T1 sequence (O95750 25-216 limits assumed): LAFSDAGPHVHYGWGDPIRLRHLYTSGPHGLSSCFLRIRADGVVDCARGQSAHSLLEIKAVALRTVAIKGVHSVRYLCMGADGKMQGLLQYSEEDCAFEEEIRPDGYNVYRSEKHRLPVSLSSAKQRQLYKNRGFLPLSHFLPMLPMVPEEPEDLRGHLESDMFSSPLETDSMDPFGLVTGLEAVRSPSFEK

Binder	KD (fold weaker), against chimeric 1A6 [1] [fold]	Ka (fold slower), against chimeric 1A6 [1] [fold]	Kd (fold faster), against chimeric 1A6 [1] [fold]	also measured
1A6-graft (direct HVR-graft of 1A6), expressed as IgG (antibody, V domains shown, Tested as IgG produced in 293 cells; also called 1A6 grafted antibody; 1A6 HVR graft) VH: EVQLVESGGGLVQPGGSLRLSCAASGFSLTTYGVHWVRQAPGKGLEWVGVIWPGGGTDYNAAFISRFTISRDNSKNTLYLQMNSLRAEDTAVYYCVRKEYANLYAMDYWGQGTLVTVSS VL: DIQMTQSPSSLSASVGDRVTITCKASQDINSFLSWYQQKPGKAPKLLIYRANRLVDGVPSRFSGSGSGTDFTLTISSLQPEDFATYYCLQYDEFPLTFGQGTKVEIKR	58.1	24.8	2.3	fold reduction of binding affinity relative to chimeric 1A6 [2]: > 50 fold; Kd [3]: 2.09 nM; koff [3]: 0.000124 s⁻¹; kon [3]: 59300 M⁻¹ s⁻¹
hu1A6.A100bP/M100kS (HVR-H3) (antibody, name in Kabat numbering, V domains shown, also called A100bP/M100cS) VH: EVQLVESGGGLVQPGGSLRLSCAASGFSLTTYGVHWVRQAPGKGLEWVGVIWPGGGTDYNAAFISRFTISRDNSKNTLYLQMNSLRAEDTAVYYCVRKEYANLYPSDYWGQGTLVTVSS VL: DIQMTQSPSSLSASVGDRVTITCKASQDINSFLSWYQQKPGKAPKLLIYRANRLVDGVPSRFSGSGSGTDFTLTISSLQPEDFATYYCLQYDEFPLTFGQGTKVEIKR	0.9	1.7	0.5	–
hu1A6.Q90S (HVR-L3) (antibody, V domains shown) VH: EVQLVESGGGLVQPGGSLRLSCAASGFSLTTYGVHWVRQAPGKGLEWVGVIWPGGGTDYNAAFISRFTISRDNSKNTLYLQMNSLRAEDTAVYYCVRKEYANLYAMDYWGQGTLVTVSS VL: DIQMTQSPSSLSASVGDRVTITCKASQDINSFLSWYQQKPGKAPKLLIYRANRLVDGVPSRFSGSGSGTDFTLTISSLQPEDFATYYCLSYDEFPLTFGQGTKVEIKR	16	10.4	1.5	–
hu1A6.S34A/D56S (HVR-L1/L2) (antibody, V domains shown, Humanized 1A6 variant as IgG) VH: EVQLVESGGGLVQPGGSLRLSCAASGFSLTTYGVHWVRQAPGKGLEWVGVIWPGGGTDYNAAFISRFTISRDNSKNTLYLQMNSLRAEDTAVYYCVRKEYANLYAMDYWGQGTLVTVSS VL: DIQMTQSPSSLSASVGDRVTITCKASQDINSFLAWYQQKPGKAPKLLIYRANRLVSGVPSRFSGSGSGTDFTLTISSLQPEDFATYYCLQYDEFPLTFGQGTKVEIKR	–	–	–	Kd [4]: 0.118 nM; koff [4]: 4.6e-05 s⁻¹; kon [4]: 390000 M⁻¹ s⁻¹; Kd [5]: 0.481 nM; koff [5]: 7.7e-05 s⁻¹; kon [5]: 160000 M⁻¹ s⁻¹
hu1A6.A100bR (HVR-H3) (antibody, name in Kabat numbering, V domains shown) VH: EVQLVESGGGLVQPGGSLRLSCAASGFSLTTYGVHWVRQAPGKGLEWVGVIWPGGGTDYNAAFISRFTISRDNSKNTLYLQMNSLRAEDTAVYYCVRKEYANLYRMDYWGQGTLVTVSS VL: DIQMTQSPSSLSASVGDRVTITCKASQDINSFLSWYQQKPGKAPKLLIYRANRLVDGVPSRFSGSGSGTDFTLTISSLQPEDFATYYCLQYDEFPLTFGQGTKVEIKR	2.3	2.6	0.9	–
hu1A6.S34G/D56S (HVR-L1/L2) (antibody, V domains shown, Humanized 1A6 variant as IgG) VH: EVQLVESGGGLVQPGGSLRLSCAASGFSLTTYGVHWVRQAPGKGLEWVGVIWPGGGTDYNAAFISRFTISRDNSKNTLYLQMNSLRAEDTAVYYCVRKEYANLYAMDYWGQGTLVTVSS VL: DIQMTQSPSSLSASVGDRVTITCKASQDINSFLGWYQQKPGKAPKLLIYRANRLVSGVPSRFSGSGSGTDFTLTISSLQPEDFATYYCLQYDEFPLTFGQGTKVEIKR	–	–	–	Kd [4]: 0.114 nM; koff [4]: 1.6e-05 s⁻¹; kon [4]: 140000 M⁻¹ s⁻¹; Kd [5]: 0.906 nM; koff [5]: 4.8e-05 s⁻¹; kon [5]: 53000 M⁻¹ s⁻¹
hu1A6.H35Q (HVR-H1) (antibody, name in Kabat numbering, V domains shown) VH: EVQLVESGGGLVQPGGSLRLSCAASGFSLTTYGVQWVRQAPGKGLEWVGVIWPGGGTDYNAAFISRFTISRDNSKNTLYLQMNSLRAEDTAVYYCVRKEYANLYAMDYWGQGTLVTVSS VL: DIQMTQSPSSLSASVGDRVTITCKASQDINSFLSWYQQKPGKAPKLLIYRANRLVDGVPSRFSGSGSGTDFTLTISSLQPEDFATYYCLQYDEFPLTFGQGTKVEIKR	6.6	5	1.3	–
chimeric anti-FGF19 antibody 1A6 (antibody, V domains shown, also called chimeric 1A6; ch1A6) VH: QVQLKQSGPGLVQPSQSLSITCTVSGFSLTTYGVHWVRQSPGKGLEWLGVIWPGGGTDYNAAFISRLSITKDNSKSQVFFKMNSLLANDTAIYFCVRKEYANLYAMDYWGQGTLLTVSA VL: DIKMTQSPSSMYASLGERVTIPCKASQDINSFLSWFQQKPGKSPKTLIYRANRLVDGVPSRFSGSGSGQDYSLTISSLEYEDMGIYYCLQYDEFPLTFGAGTKVEIKR	1	1	1	Kd [4]: 0.032 nM; koff [4]: 5.4e-05 s⁻¹; kon [4]: 1.7e+06 M⁻¹ s⁻¹; IC50 [6]: 4.5 nM; Kd [5]: 0.087 nM; koff [5]: 6.6e-05 s⁻¹; kon [5]: 760000 M⁻¹ s⁻¹; Kd [3]: 0.036 nM; koff [3]: 5.3e-05 s⁻¹; kon [3]: 1.47e+06 M⁻¹ s⁻¹; IC50 [7]: 0.675 µg/mL

More lines, main results first:

KD (fold weaker), against chimeric 1A6 [1] [fold]	Ka (fold slower), against chimeric 1A6 [1] [fold]	Kd (fold faster), against chimeric 1A6 [1] [fold]	Binder	also measured
9.1	7.7	1.2	hu1A6.S34A (HVR-L1) (antibody, V domains shown) VH: EVQLVESGGGLVQPGGSLRLSCAASGFSLTTYGVHWVRQAPGKGLEWVGVIWPGGGTDYNAAFISRFTISRDNSKNTLYLQMNSLRAEDTAVYYCVRKEYANLYAMDYWGQGTLVTVSS VL: DIQMTQSPSSLSASVGDRVTITCKASQDINSFLAWYQQKPGKAPKLLIYRANRLVDGVPSRFSGSGSGTDFTLTISSLQPEDFATYYCLQYDEFPLTFGQGTKVEIKR	–
10.5	12.5	0.9	hu1A6.V34A (HVR-H1) (antibody, name in Kabat numbering, V domains shown) VH: EVQLVESGGGLVQPGGSLRLSCAASGFSLTTYGAHWVRQAPGKGLEWVGVIWPGGGTDYNAAFISRFTISRDNSKNTLYLQMNSLRAEDTAVYYCVRKEYANLYAMDYWGQGTLVTVSS VL: DIQMTQSPSSLSASVGDRVTITCKASQDINSFLSWYQQKPGKAPKLLIYRANRLVDGVPSRFSGSGSGTDFTLTISSLQPEDFATYYCLQYDEFPLTFGQGTKVEIKR	–
14	12	1.2	hu1A6.S34T (HVR-L1) (antibody, V domains shown) VH: EVQLVESGGGLVQPGGSLRLSCAASGFSLTTYGVHWVRQAPGKGLEWVGVIWPGGGTDYNAAFISRFTISRDNSKNTLYLQMNSLRAEDTAVYYCVRKEYANLYAMDYWGQGTLVTVSS VL: DIQMTQSPSSLSASVGDRVTITCKASQDINSFLTWYQQKPGKAPKLLIYRANRLVDGVPSRFSGSGSGTDFTLTISSLQPEDFATYYCLQYDEFPLTFGQGTKVEIKR	–
5.7	6.3	0.9	hu1A6.V50L (HVR-H2) (antibody, name in Kabat numbering, V domains shown) VH: EVQLVESGGGLVQPGGSLRLSCAASGFSLTTYGVHWVRQAPGKGLEWVGLIWPGGGTDYNAAFISRFTISRDNSKNTLYLQMNSLRAEDTAVYYCVRKEYANLYAMDYWGQGTLVTVSS VL: DIQMTQSPSSLSASVGDRVTITCKASQDINSFLSWYQQKPGKAPKLLIYRANRLVDGVPSRFSGSGSGTDFTLTISSLQPEDFATYYCLQYDEFPLTFGQGTKVEIKR	–
